Measurements taken from PMC9361855.

Key:
Factor I = Factor I (UniProt P05156); assay: ELISA; conditions: CipA variants coated at 5 ng/µl, FI 10 ng/µl, anti-FI antibody 1:1,000, read off a plot
[1] = target: CipA (hexahistidine-tagged, lacking the N-terminal signal sequence, amino acid residues 19-369) (Acinetobacter baumannii); assay: ELISA; CipA immobilised (5 µg/ml), increasing amounts of complement component (0 to 50 nM in the methods; 0 to 25 nM FI in the legend); dissociation constant approximated by non-linear regression, one-site specific binding model

Sequence of Factor I (P05156 19-335): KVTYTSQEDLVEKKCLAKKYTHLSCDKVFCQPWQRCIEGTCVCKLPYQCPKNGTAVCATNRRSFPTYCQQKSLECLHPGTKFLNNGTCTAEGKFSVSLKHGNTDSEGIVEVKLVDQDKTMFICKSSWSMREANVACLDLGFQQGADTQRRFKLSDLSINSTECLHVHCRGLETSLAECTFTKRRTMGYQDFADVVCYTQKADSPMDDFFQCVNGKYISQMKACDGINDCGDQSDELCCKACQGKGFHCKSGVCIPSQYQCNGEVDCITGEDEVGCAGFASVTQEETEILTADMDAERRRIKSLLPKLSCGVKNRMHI
Sequence of Factor I (P05156 340-583): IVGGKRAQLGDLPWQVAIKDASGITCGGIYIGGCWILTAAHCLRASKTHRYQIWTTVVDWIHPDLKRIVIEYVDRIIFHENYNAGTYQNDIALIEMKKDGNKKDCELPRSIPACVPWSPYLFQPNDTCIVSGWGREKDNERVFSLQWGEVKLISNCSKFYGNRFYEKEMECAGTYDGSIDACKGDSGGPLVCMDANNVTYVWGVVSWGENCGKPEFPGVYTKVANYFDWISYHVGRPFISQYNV

Row | Substance | response (Absorbance at 490 nm) (Factor I; parent: est. 2.8) | response (Absorbance at 490 nm) (Factor I; parent: est. 3.1) | also measured
1 | CipA (hexahistidine-tagged, lacking the N-terminal signal sequence, amino acid residues 19-369) V364del | 1.9 | – | –
2 | Factor I (from UniProt P05156 19-335; P05156 340-583) (enzyme) | – | – | Kd [1]: 3 nM
3 | CipA (hexahistidine-tagged, lacking the N-terminal signal sequence, amino acid residues 19-369) P367A | 2.1 | – | –
4 | CipA (hexahistidine-tagged, lacking the N-terminal signal sequence, amino acid residues 19-369) L363del | 2 | – | –
5 | CipA (hexahistidine-tagged, lacking the N-terminal signal sequence, amino acid residues 19-369) P367del | 2 | – | –
6 | CipA (hexahistidine-tagged, lacking the N-terminal signal sequence, amino acid residues 19-369) E360A | – | 2.8 | –
7 | CipA (hexahistidine-tagged, lacking the N-terminal signal sequence, amino acid residues 19-369) L363del; V364del | 2.7 | – | –
8 | CipA (hexahistidine-tagged, lacking the N-terminal signal sequence, amino acid residues 19-369) K365A; K366A; K368A; K369A | 2.7 | – | –
9 | CipA (hexahistidine-tagged, lacking the N-terminal signal sequence, amino acid residues 19-369) E362A | – | 2.9 | –
10 | CipA (hexahistidine-tagged, lacking the N-terminal signal sequence, amino acid residues 19-369) Q361A | – | 3.1 | –
11 | CipA (hexahistidine-tagged, lacking the N-terminal signal sequence, amino acid residues 19-369) E360P | – | 0.35 | –
